Reference: patent US20140170162A1, “PRESERVATION OF THE NEUROMUSCULAR JUNCTION (NMJ) AFTER TRAUMATIC NERVE INJURY” (The Regents of the University of California, priority 2012, published 2014)

Legend:
[1] = target: His-labeled rat recombinant agrin (R&D Systems) (UniProt P25304)
C212 myotubes = experiment: In vitro assessment of AChR clustering in myotubes; format: cell-based; conditions: FIG. 3A, B
Protocol: C212 cells were purchased from ATCC (Manassas, Va.). Cells were expanded and differentiated into myotubes as previously described. Five days following differentiation, myotubes were then treated overnight with […] His-labeled rat recombinant agrin (R&D Systems, Minneapolis, Minn.) or […] rat recombinant agrin incubated with […] MMP3 active subunit (Millipore, Billerica, Mass.) for 72 hours. Western blot was performed to confirm cleavage of agrin. After treatment of myotubes with Alexa 555-conjugated a-bungarotoxin (a-BTX; Invitrogen, Carlsbad, Calif.; 1:1,000), samples were fixed according to standard procedures for immunohistochemistry. Ten random fields at 40 magnification were evaluated by a blinded observer for AChR clustering under fluorescent microscopy as previously described. An AChR cluster was defined as an aggregate of at least 4 lm2. Three samples from each treatment group were analyzed.
Agrin was cleaved by MMP3, resulting in a 60 kDa fragment as detected by silver stain.

Chain of UniProt P25304 (P25304 1153-1959): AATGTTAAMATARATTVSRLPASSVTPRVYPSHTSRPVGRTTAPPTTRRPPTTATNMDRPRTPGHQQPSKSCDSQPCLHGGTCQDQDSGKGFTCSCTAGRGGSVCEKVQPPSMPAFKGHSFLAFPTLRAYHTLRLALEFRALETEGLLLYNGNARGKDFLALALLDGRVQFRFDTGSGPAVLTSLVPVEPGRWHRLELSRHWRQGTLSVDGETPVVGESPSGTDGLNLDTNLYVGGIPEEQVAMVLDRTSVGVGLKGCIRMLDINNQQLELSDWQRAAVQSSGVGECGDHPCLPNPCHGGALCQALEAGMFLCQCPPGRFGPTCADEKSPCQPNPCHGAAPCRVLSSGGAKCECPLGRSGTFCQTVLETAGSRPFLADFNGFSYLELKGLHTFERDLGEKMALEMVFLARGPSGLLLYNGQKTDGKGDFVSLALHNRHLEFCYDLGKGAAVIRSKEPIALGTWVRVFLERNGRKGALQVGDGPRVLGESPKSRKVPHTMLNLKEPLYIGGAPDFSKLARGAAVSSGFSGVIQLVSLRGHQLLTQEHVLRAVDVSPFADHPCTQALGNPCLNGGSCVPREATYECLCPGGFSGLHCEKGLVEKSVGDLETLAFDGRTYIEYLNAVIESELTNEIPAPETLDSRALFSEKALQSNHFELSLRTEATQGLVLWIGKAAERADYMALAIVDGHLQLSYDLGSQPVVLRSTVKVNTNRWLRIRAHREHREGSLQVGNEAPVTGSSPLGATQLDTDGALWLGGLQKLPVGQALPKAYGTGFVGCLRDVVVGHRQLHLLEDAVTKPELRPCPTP

Row | Substance | AChR clusters/field in C212 myotubes (agrin processed by MMP3, against 7.30 for agrin alone) [1] | cleavage of agrin (silver stain) [1] | degradation of 90 kDa agrin after 72 hours [1] | AChR clustering (images) (C212 myotubes)
1 | MMP3 active subunit (Millipore) | 7.30 6 0.578 clusters/field vs 2.20 6 0.467 clusters/field | Agrin was cleaved by MMP3, resulting in a 60 kDa fragment as detected by silver stain | Treatment with MMP3 for 72 hours led to complete degradation of 90 kDa agrin | –
2 | agrin: His-labeled rat recombinant agrin (R&D Systems), approximately 90 kDa | – | – | – | clustering
